Patent US12428627B2, “Mutant p-hydroxyphenylpyruvate dioxygenase, and coding nucleic acid and use thereof” (Qingdao Kingagroot Chemical Compound Co., Ltd., priority 2018, dated 2025)

Assays:
[1] = system: transgenic rice (Zhonghua 11); assay: Herbicide resistance of transgenic rice seedlings (T0) on medium containing tembotrione; assay type: in vivo; details: T0 transgenic seedlings overexpressing the mutant, differentiation medium
Description: • 1. Construction of overexpression vector • 1) Primers: primers were designed according to the selected restriction sites and the nucleotide sequence of the gene itself to amplify the three-site mutant HPPD (H141R/G342D/D370N) (OsHPPD3M). The designed primers were synthesized by Beijing Qingke Biotechnology Co., Ltd.: HPPD-F, […] ATGCCTCCCACT CCCACCC, HPPD-R, […] GGC. • 2) PCR amplification: the gene of interest was amplified by using the synthesized primer and Q5 DNA polymerase (NEB, New England Biolabs, Boston, USA). The amplified product was assayed by agarose gel electrophoresis, and the product was recovered according to operational instructions of the TIANquick Midi Purification kit. After the completion of the recovery, the concentration of extracted DNA was determined by Nanodrop. • 3) Construction of a rice overexpression vector: the rice overexpression vector pCAMBIA1301-OsHPPD3M was constructed with the recovered HPPD fragments and plasmid pCAMBIA1301 digested by KpnI and HindIII by using the HB-in Fusions™ seamless cloning kit of HanBio Biotechnology Co., Ltd., (Shanghai), and then transformed into the competent E. coli DH5α to obtain a positive clone; the positive clone was transformed into Agrobacterium after sequencing and restriction endonuclease digestion. • 2. […]

[2] = system: OsHPPD; assay: HPPD enzyme activity assay: Km, Kcat and Kcat/Km of OsHPPDs; assay type: biochemical, Oryza sativa; details: substrate 4-HPP
Experimental: The rice OsHPPD protein and homogentisate 1,2-dioxygenase (HGD) were obtained by heterologously expressed in E. coli wherein the gene was inserted into the pET 15b expression vector and expressed in the BL21 (DE3) expression strain, and purified by the Ni-NTA resin. • (1) The HPPD open reading frame (ORF) of the positive clone was cloned into the pET-15b vector to form a 6His-HPPD expression vector, and transformed into the BL21 (DE3) cell. The expression strain was inoculated in 10 mL of 2×YT culture medium, and cultivated overnight on a shaker at 37° C. and 200 rpm. The 10 mL of the culture was inoculated in 1 L of 2×YT culture medium and cultivated until the OD600 reached 0.6-0.8, cooled to a temperature of 16° C., and subjected to induced-expression with 0.2 mM IPTG (isopropyl thiogalactoside) overnight. The strains were collected by centrifugation at 2800×g. • (2) The collected strains were re-suspended with the buffer A (50 mM Tris pH 8.0, 500 mM NaCl, 20 mM imidazole), to which PMSF (phenylmethanesulfonyl fluoride) at the final concentration of 1 mM and 250 μL of a protease inhibitor cocktail (i.e., a mixture of multiple protease inhibitors), and mixed. The cells were broken by ultrasound in ice-bath (40% total power, work for 3 seconds/6 seconds interval, 2×30 minutes (Ningbo Scientz Biotechnology Co., Ltd., Ningbo, China)), and centrifuged at 12000 rpm at 4° C. for 30 minutes; and the supernatant was filtered with a 0.22 μm filter membrane. • (3) Purification with the Ni-NTA column: the supernatant was in contact with the Ni-NTA resin, then rinsed with a buffer A containing 50 mM imidazole to remove the impurities, and finally, eluted with an elution buffer containing 400 mM imidazole. • (4) The approximate purity of the protein of interest was analyzed by SDS-PAGE. The eluates containing of the protein of interest were combined and concentrated by an ultrafiltration device (10 kDa molecular weight cut-off, Amicon Ultra). The solution was replaced with a solution containing 20 mM Tris-HCl and having a pH of 7.5 for at least 3 times to desalt. The total protein concentration was determined by the BCA method.
• 1. The activity of a HPPD enzyme was determined by detecting the conversion of 4-hydroxyphenylpyruvate (4-HPP) to homogentisic acid (HGA) catalyzed by the HPPD enzyme and the conversion of HGA to maleylacetoacetate (MAA) catalyzed by homogentisate dioxygenase. […] 6 μl of 4-hydroxyphenylpyruvate (4-HPP) having a concentration that was as 50 times as the final concentration of the substrate were added to an ELSA plate, and then 294 μL of hydroxyethylpiperazine ethanesulfonic acid (HEPES) with a final concentration of 25 mM and pH of 7, 2 mM of Vitamin C, 10 mM FeSO4, 50 nM homogentisate dioxygenase and 5 to 240 nM HPPD enzyme were added thereto at one time. The final concentration of reaction substrate 4-HPP usually ranged from 1 to 100 μM. • 3. The absorbance changes of the reaction wells at 318 nm were continuously monitored by a UV ELISA detector (ReadMax 1900 photoabsorption type full-wavelength microplate reader) (Shanghai). • 4. Determination of Km, Kcat and Kcat/Km of OsHPPDs
Vmax is the maximum catalytic reaction rate achievable by enzymatic catalysis. The Michaelis constant Km is the concentration of a substrate required when the enzyme catalyzed the reaction to achieve half of the maximum rate (Vmax). The Km value is a constant and independent of the enzyme concentration, and altered as substrate type, reaction temperature, pH, and ionic strength changed. […] is a catalytic constant of an enzyme and referred to the number of substrate molecules that could be catalyzed by an enzyme molecule or enzyme active center per second. KCat/Km represents the catalytic efficiency of enzyme. It could be seen from the data in the table that the catalytic efficiency of most HPPD mutants was enhanced.

B1: H141R/G342D/D370N: three-site mutant rice HPPD (OsHPPD3M) (protein, listed as Oryza sativa)
chain: MPPTPTPTATTGAVSAAAAAGENAGFRLVGHRRFVRANPRSDRFQALAFHHVELWCADAASAAGRFAFALGAPLAARSDLSTGNSAHASLLLRSASVAFLFTAPYGGDHGVGADAATTASIPSFSPGAARRFAADHGLAVRAVALRVADAADAFRASVAAGARPAFQPADLGGGFGLAEVELYGDVVLRFVSHPDGADAPFLPGFEGVSNPGAVDYGLRRFDHVVGNVPELAPVAAYISGFTGFHEFAEFTAEDVGTAESGLNSVVLANNAETVLLPLNEPVHGTKRRSQIQTYLDHHGGPGVQHIALASDDVLGTLREMRARSAMGGFEFLAPPPPNYYDDVRRRAGDVLSEEQINECQELGVLVDRDNQGVLLQIFTKPVGDRPTFFLEMIQRIGCMEKDESGQEYQKGGCGGFGKGNFSELFKSIEEYEKSLEAKQAPTVQGS
modifications: The amino acid sequence of Wild-Type rice HPPD protein (OsHPPD _WT)
[1]
  tembotrione concentration in culture medium tolerated (remains green): 3 µM
[2]
  Km: 10.9 µM
